The values below come from patent CN109627340A (UNIV SHANGHAI JIAOTONG; JECHO LABORATORIES INC, dated 2019).

This experiment concerns the target T1, 人PRLR胞外结构域 (Sino Biological) (human, UniProt P16471 25-234).
T1 construct: Bought recombinant protein (Sino Biological); also called PRLR胞外区; PRLR ECD
T1 sequence (looked up): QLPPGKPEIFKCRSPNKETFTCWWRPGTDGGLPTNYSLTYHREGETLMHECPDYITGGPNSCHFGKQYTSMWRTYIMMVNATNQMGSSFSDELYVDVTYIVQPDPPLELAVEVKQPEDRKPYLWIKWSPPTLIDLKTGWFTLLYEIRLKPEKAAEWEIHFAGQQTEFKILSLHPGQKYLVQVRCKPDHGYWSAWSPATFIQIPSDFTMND
In words: SPR, Biacore T200, antigen amine-coupled to CM5 chip.

B1: PRLR-DbsAb (CD3×PRLR双特异性抗体) (bispecific antibody, human IgG1, kappa)
heavy 1: not shown
light 1: DIQMTQSPSSLSASVGDRVTITCSASSSVSYMNWYQQTPGKAPKRWIYDTSKLASGVPSRFSGSGSGTDYTFTISSLQPEDIATYYCQQWSSNPFTFGQGTKLQITRTVAAPSVFIFPPSDEQLKSGTASVVCLLNNFYPREAKVQWKVDNALQSGNSQESVTEQDSKDSTYSLSSTLTLSKADYEKHKVYACEVTHQGLSSPVTKSFNRGEC
heavy 2: not shown
light 2: not shown
notes: also called PRLR-DsbAb; CD3和PRLR双特异性抗体
B1 registered a Kd of 2.31 nM, a koff of 0.000679 s⁻¹ and a kon of 294000 M⁻¹ s⁻¹.
